One experiment addresses T1, soluble P-selectin (UniProt P16109 42-771, limits assumed).
T1 sequence (looked up): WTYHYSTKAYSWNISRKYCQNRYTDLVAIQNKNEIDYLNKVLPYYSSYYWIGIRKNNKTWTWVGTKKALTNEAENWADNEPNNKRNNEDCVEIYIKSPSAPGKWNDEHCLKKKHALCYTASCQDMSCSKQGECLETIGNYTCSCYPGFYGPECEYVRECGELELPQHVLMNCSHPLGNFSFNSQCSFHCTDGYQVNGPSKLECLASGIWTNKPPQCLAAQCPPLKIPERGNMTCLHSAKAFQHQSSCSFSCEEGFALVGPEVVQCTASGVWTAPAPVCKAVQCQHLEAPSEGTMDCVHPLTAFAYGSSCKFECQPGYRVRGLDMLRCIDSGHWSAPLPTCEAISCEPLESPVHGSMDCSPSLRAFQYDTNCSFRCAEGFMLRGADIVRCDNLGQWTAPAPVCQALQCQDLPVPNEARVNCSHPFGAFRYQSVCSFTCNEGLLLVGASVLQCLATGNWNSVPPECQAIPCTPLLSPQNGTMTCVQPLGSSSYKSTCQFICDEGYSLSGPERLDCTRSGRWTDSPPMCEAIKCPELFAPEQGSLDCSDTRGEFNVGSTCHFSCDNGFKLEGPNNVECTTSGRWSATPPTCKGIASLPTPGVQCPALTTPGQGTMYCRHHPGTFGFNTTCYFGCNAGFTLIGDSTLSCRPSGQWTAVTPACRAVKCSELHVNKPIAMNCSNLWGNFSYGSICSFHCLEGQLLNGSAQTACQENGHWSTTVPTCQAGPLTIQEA
The experiment is described as follows: SPR (Biacore 3000, 25 C), soluble P-selectin coupled to CM-5 chip, antibody as analyte, bivalent analyte model. The procedure: (§1) All experiments were performed on a Biacore 3000, at 25° C., using 20 mM MOPS, pH 7.5, 150 mM NaCl, 1.5 mM CaCl₂ and 0.005% Tween-20 as running buffer. Low densities of soluble P-selectin or soluble E-selectin (control protein) were covalently coupled on two different surfaces of a CM-5 chip according to the manufacturer's instructions. The coating density was selected with the aim of achieving a maximum binding response of 100-200 RUs.
(§2) Solutions containing G1aggr and the G1 mouse parental monoclonal antibody were diluted and injected onto the CM-5 chip at a flow rate of 30 μl/min for 4 minutes, followed by 3 min to allow for dissociation, at which time the bound antibody was eluted with a 10 μl injection of 10 mM Acetate pH 4.5, 100 mM NaCl at a flow rate of 10 μl/min. A series of concentrations of both antibodies were injected over the soluble P-selectin and the soluble E-selectin surfaces until saturating binding was observed.
The data were analyzed using the Biaevaluation software v 4.1. Sensorgrams from the different cycles were overlaid and the data for all curves of one antibody were simultaneously fitted to a Bivalent analyte model (see FIG. 5). The equilibrium affinity was calculated from the on-rates and off-rates obtained from this analysis.

The target of experiment [1] is T2, soluble E-selectin (control protein) (UniProt P16581 22-556, limits assumed).
T2 sequence (looked up): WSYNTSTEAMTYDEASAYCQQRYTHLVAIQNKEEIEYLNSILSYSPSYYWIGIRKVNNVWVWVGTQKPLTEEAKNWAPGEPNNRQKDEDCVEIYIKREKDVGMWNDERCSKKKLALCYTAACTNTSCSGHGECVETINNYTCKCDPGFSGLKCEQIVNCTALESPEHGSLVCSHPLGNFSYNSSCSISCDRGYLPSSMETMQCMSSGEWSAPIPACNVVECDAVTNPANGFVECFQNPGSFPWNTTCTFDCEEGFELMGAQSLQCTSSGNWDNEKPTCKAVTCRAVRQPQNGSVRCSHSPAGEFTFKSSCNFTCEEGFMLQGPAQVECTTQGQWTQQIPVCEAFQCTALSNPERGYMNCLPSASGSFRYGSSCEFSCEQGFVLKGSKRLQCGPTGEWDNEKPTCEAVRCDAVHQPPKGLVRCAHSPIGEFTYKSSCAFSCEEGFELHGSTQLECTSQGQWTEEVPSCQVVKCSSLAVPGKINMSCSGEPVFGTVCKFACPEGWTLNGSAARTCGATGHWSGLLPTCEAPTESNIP
The experiment is described as follows: SPR (Biacore 3000), soluble E-selectin coupled to CM-5 chip, antibody injected. The procedure: as §1, §2
There was no binding observed for either antibody to E-selectin.

B1: humanized G1 antibody design labeled "aggressive" (G1aggr) (antibody, V domains shown)
VH: QVQLVQSGAEVKKPGASVKVSCKVSGYTFTSYDINWVRQAPGKGLEWMGWIYPGDGSIKYNEKFKGRVTMTVDKSTDTAYMELSSLRSEDTAVYYCARRGEYGNYEGAMDYWGQGTLVTVSS
VL: DIQMTQSPSSLSASVGDRVTITCKASQSVDYDGHSYMNWYQQKPGKAPKLLIYAASNLESGVPSRFSGSGSGTDFTLTISSLQPEDFATYYCQQSDENPLTFGGGTKVEIK
notes: also called humanized G1aggr; humanized antibody G1aggr
In the experiment with soluble P-selectin, B1 showed a Kd of 31.1 nM. The binding result in experiment [1] is reported as “no binding”.

B2: G1 mouse parental monoclonal antibody (antibody, V domains shown)
VH: QVQLQQSGPELVKPGALVKISCKASGYTFTSYDINWVKQRPGQGLEWIGWIYPGDGSIKYNEKFKGKATLTVDKSSSTAYMQVSSLTSENSAVYFCARRGEYGNYEGAMDYWGQGTTVTVSS
VL: DIVLTQDPASLAVSLGQRATISCKASQSVDYDGHSYMNWYQQKPGQPPKLLIYAASNLESGIPARFSGSGSGTDFTLNIHPVEEEDAATYYCQQSDENPLTFGTGTKLELK
notes: Mouse monoclonal antibody from a hybridoma; also called murine mAb G1; parental G1 murine antibody
As to B2, the Kd in the experiment with soluble P-selectin worked out at 24.4 nM. Further, the binding result in experiment [1] is given as “no binding”.

The record behind these values is patent US20110243926A1 (published 2011).
